In patent publication US20260356955 (published 2026):

B1: Hu47A5H2-14 (antibody, V domains shown)
VH: QVQLVQSGAEVKKPGASVKVSCKGSGYSFTGYWMHWVRQAPGQGLEWMGMIHPSDSETRLNQKFKDKVTMTVDKSTSTVYMELSSLRSEDTAVYYCASEGLRRGSFAYWGQGTLVTVSS
VL: DIVLTQSPDSLAVSLGERATINCRASESVDNYGMTFMSWYQQKPGQPPKLLIYAASNQGSGVPDRFSGSGSGTDFTLTISSLQAEDVAVYYCQQSKEVPYTFGQGTKLEIK
B2: Hu47A5H2-01 (antibody, V domains shown)
VH: QVQLVQSGAEVKKPGASVKVSCKASGYSFTGYWMHWVRQAPGQGLEWMGMIHPSDSETRLNQKFKDRVTMTRDTSTSTVYMELSSLRSEDTAVYYCASEGLRRGSFAYWGQGTLVTVSS
VL: DIVMTQSPDSLAVSLGERATINCRASESVDNYGMTFMSWYQQKPGQPPKLLIYAASNQGSGVPDRFSGSGSGTDFTLTISSLQAEDVAVYYCQQSKEVPYTFGQGTKLEIK
B3: Hu47A5H2-12 (antibody, V domains shown)
VH: QVQLVQSGAEVKKPGASVKVSCKASGYSFTGYWMHWVRQAPGQGLEWMGMIHPSDSETRLNQKFKDRVTMTVDKSTSTVYMELSSLRSEDTAVYYCASEGLRRGSFAYWGQGTLVTVSS
VL: EIVLTQSPATLSLSPGERATLSCRASESVDNYGMTFMSWYQQKPGQAPRLLIYAASNQGSGIPARFSGSGSGTDFTLTISSLEPEDFAVYYCQQSKEVPYTFGQGTKLEIK
B4: Hu47A5H2-03 (antibody, V domains shown)
VH: QVQLVQSGAEVKKPGASVKVSCKASGYSFTGYWMHWVRQAPGQGLEWMGMIHPSDSETRLNQKFKDRVTMTRDTSTSTVYMELSSLRSEDTAVYYCASEGLRRGSFAYWGQGTLVTVSS
VL: DIVLTQSPDSLAVSLGERATINCRASESVDNYGMTFMSWFQQKPGQPPKLLIYAASNQGSGVPDRFSGSGSGTDFTLTISSLQAEDVAVYYCQQSKEVPYTFGQGTKLEIK
B5: Hu47A5H2-08 (antibody, V domains shown)
VH: QVQLVQSGAEVKKPGASVKVSCKASGYSFTGYWMHWVRQAPGQGLEWMGMIHPSDSETRLNQKFKDRVTMTVDTSTSTVYMELSSLRSEDTAVYYCASEGLRRGSFAYWGQGTLVTVSS
VL: EIVLTQSPATLSLSPGERATLSCRASESVDNYGMTFMSWYQQKPGQAPRLLIYAASNQGSGIPARFSGSGSGTDFTLTISSLEPEDFAVYYCQQSKEVPYTFGQGTKLEIK
B6: Hu47A5H2-04 (antibody, V domains shown)
VH: QVQLVQSGAEVKKPGASVKVSCKASGYSFTGYWMHWVRQAPGQGLEWMGMIHPSDSETRLNQKFKDRVTMTRDTSTSTVYMELSSLRSEDTAVYYCASEGLRRGSFAYWGQGTLVTVSS
VL: EIVLTQSPATLSLSPGERATLSCRASESVDNYGMTFMSWYQQKPGQAPRLLIYAASNQGSGIPARFSGSGSGTDFTLTISSLEPEDFAVYYCQQSKEVPYTFGQGTKLEIK
B7: Hu47A5H2-09 (antibody, V domains shown)
VH: QVQLVQSGAEVKKPGASVKVSCKASGYSFTGYWMHWVRQAPGQGLEWMGMIHPSDSETRLNQKFKDRVTMTVDKSTSTVYMELSSLRSEDTAVYYCASEGLRRGSFAYWGQGTLVTVSS
VL: DIVMTQSPDSLAVSLGERATINCRASESVDNYGMTFMSWYQQKPGQPPKLLIYAASNQGSGVPDRFSGSGSGTDFTLTISSLQAEDVAVYYCQQSKEVPYTFGQGTKLEIK
B8: Hu47A5H2-13 (antibody, V domains shown)
VH: QVQLVQSGAEVKKPGASVKVSCKGSGYSFTGYWMHWVRQAPGQGLEWMGMIHPSDSETRLNQKFKDKVTMTVDKSTSTVYMELSSLRSEDTAVYYCASEGLRRGSFAYWGQGTLVTVSS
VL: DIVMTQSPDSLAVSLGERATINCRASESVDNYGMTFMSWYQQKPGQPPKLLIYAASNQGSGVPDRFSGSGSGTDFTLTISSLQAEDVAVYYCQQSKEVPYTFGQGTKLEIK
B9: Hu47A5H2-05 (antibody, V domains shown)
VH: QVQLVQSGAEVKKPGASVKVSCKASGYSFTGYWMHWVRQAPGQGLEWMGMIHPSDSETRLNQKFKDRVTMTVDTSTSTVYMELSSLRSEDTAVYYCASEGLRRGSFAYWGQGTLVTVSS
VL: DIVMTQSPDSLAVSLGERATINCRASESVDNYGMTFMSWYQQKPGQPPKLLIYAASNQGSGVPDRFSGSGSGTDFTLTISSLQAEDVAVYYCQQSKEVPYTFGQGTKLEIK
B10: Hu47A5H2-15 (antibody, V domains shown)
VH: QVQLVQSGAEVKKPGASVKVSCKGSGYSFTGYWMHWVRQAPGQGLEWMGMIHPSDSETRLNQKFKDKVTMTVDKSTSTVYMELSSLRSEDTAVYYCASEGLRRGSFAYWGQGTLVTVSS
VL: DIVLTQSPDSLAVSLGERATINCRASESVDNYGMTFMSWFQQKPGQPPKLLIYAASNQGSGVPDRFSGSGSGTDFTLTISSLQAEDVAVYYCQQSKEVPYTFGQGTKLEIK
B11: Hu47A5H2-16 (antibody, V domains shown)
VH: QVQLVQSGAEVKKPGASVKVSCKGSGYSFTGYWMHWVRQAPGQGLEWMGMIHPSDSETRLNQKFKDKVTMTVDKSTSTVYMELSSLRSEDTAVYYCASEGLRRGSFAYWGQGTLVTVSS
VL: EIVLTQSPATLSLSPGERATLSCRASESVDNYGMTFMSWYQQKPGQAPRLLIYAASNQGSGIPARFSGSGSGTDFTLTISSLEPEDFAVYYCQQSKEVPYTFGQGTKLEIK
B12: Hu47A5H2-02 (antibody, V domains shown)
VH: QVQLVQSGAEVKKPGASVKVSCKASGYSFTGYWMHWVRQAPGQGLEWMGMIHPSDSETRLNQKFKDRVTMTRDTSTSTVYMELSSLRSEDTAVYYCASEGLRRGSFAYWGQGTLVTVSS
VL: DIVLTQSPDSLAVSLGERATINCRASESVDNYGMTFMSWYQQKPGQPPKLLIYAASNQGSGVPDRFSGSGSGTDFTLTISSLQAEDVAVYYCQQSKEVPYTFGQGTKLEIK
B13: Hu47A5H2-06 (antibody, V domains shown)
VH: QVQLVQSGAEVKKPGASVKVSCKASGYSFTGYWMHWVRQAPGQGLEWMGMIHPSDSETRLNQKFKDRVTMTVDTSTSTVYMELSSLRSEDTAVYYCASEGLRRGSFAYWGQGTLVTVSS
VL: DIVLTQSPDSLAVSLGERATINCRASESVDNYGMTFMSWYQQKPGQPPKLLIYAASNQGSGVPDRFSGSGSGTDFTLTISSLQAEDVAVYYCQQSKEVPYTFGQGTKLEIK
B14: Hu47A5H2-10 (antibody, V domains shown)
VH: QVQLVQSGAEVKKPGASVKVSCKASGYSFTGYWMHWVRQAPGQGLEWMGMIHPSDSETRLNQKFKDRVTMTVDKSTSTVYMELSSLRSEDTAVYYCASEGLRRGSFAYWGQGTLVTVSS
VL: DIVLTQSPDSLAVSLGERATINCRASESVDNYGMTFMSWYQQKPGQPPKLLIYAASNQGSGVPDRFSGSGSGTDFTLTISSLQAEDVAVYYCQQSKEVPYTFGQGTKLEIK
B15: Hu22F10G3-1.4 (antibody, V domains shown)
VH: QVQLQESGPGLVKPSQTLSLTCTVSGYSLTSDFAWNWIRQHPGKGLEWIGDIRYSGSTDYNPSLKGRVTISVDTSKNQFSLKLSSVTAADTAVYYCARGGYYGYDEGYPMDYWGQGTLVTVSS
VL: DIVMTQSPDSLAVSLGERATISCRASESVDVYGNSFMHWYQQKPGQPPKLLIYLAFNLKSGVPARFSGSGSGTDFTLTISSLQAEDVATYYCQQNNEDPFTFGQGTKLEIK
B16: Hu22F10G3-4.3 (antibody, V domains shown)
VH: QVQLQESGPGLVKPSQTLSLTCTVSGYSLTSDFAWNWIRQFPGKGLEWMGDIRYSGSTDYNPSLKGRSTISRDTSKNQFFLKLSSVTAADTAVYYCARGGYYGYDEGYPMDYWGQGTLVTVSS
VL: DIVMTQSPDSLAVSLGERATISCRASESVDVYGNSFMHWYQQKPGQPPKLLIYLAFNLKSGVPDRFSGSGSGTDFTLTISSLQAEDVAVYYCQQNNEDPFTFGQGTKLEIK

Key:
[1] = biological target: T1, cynomolgus KLRB1 on CHO-K1 (cynomolgus); test: FACS
T1 chain: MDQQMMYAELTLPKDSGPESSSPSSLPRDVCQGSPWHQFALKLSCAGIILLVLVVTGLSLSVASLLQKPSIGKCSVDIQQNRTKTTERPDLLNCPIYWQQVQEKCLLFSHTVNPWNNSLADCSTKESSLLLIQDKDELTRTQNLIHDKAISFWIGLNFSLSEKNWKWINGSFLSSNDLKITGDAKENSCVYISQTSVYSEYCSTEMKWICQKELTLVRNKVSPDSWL

[2] = biological target: human KLRB1 on CHO-K1 (human); test: FACS
Chain of human KLRB1 on CHO-K1 (human) (chain, as listed by the source): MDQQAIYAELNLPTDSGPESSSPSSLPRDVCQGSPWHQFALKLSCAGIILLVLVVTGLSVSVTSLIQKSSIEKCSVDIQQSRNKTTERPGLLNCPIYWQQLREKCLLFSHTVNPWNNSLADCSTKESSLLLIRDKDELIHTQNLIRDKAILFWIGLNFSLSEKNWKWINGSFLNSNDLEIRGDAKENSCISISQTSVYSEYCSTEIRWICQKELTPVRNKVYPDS

[3] = biological target: human KLRB1 ECD (human); test: ELISA
Chain of human KLRB1 ECD (human) (chain, as listed by the source): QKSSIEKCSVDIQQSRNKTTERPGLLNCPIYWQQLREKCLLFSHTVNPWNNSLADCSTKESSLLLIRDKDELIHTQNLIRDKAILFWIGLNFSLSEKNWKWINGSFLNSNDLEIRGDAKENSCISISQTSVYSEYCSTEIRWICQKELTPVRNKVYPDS

[4] = biological target: T2, cynomolgus KLRB1 ECD (cynomolgus); test: ELISA
T2 chain: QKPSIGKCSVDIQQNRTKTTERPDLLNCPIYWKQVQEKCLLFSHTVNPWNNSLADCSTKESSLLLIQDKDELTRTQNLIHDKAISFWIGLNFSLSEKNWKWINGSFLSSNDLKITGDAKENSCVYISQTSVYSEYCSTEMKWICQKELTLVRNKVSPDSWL

[5] = biological target: human KLRB1 on CHO-K1 (human); test: competition, CLEC2D, FACS
[6] = biological target: human KLRB1 ECD (human); test: SPR

Binder	EC50 [1] [nM]	EC50 [2] [nM]	EC50 [3] [nM]	EC50 [4] [nM]	IC50 [5] [nM]	Kd [6] [nM]
B1	~1.82	2.12	0.0309	0.0414	2.54	
B2	7.76	2.65	0.0195	0.116	1.59	
B3	~1.69	5.16	0.0263	0.02	2.17	
B4	11.6	1.73	0.0205	0.0137	2.31	
B5	2.55	1.68	0.0174	0.0306	2.42	
B6	4.71	1.67	0.0212	0.0441	2.53	
B7	~1.86	1.96	0.0273	0.0283	2.22	
B8	~1.81	1.79	0.0266	0.0984	2.31	
B9	5.22	1.49	0.0172	0.0824	2.16	
B10	~1.74	1.98	0.0241	0.00973	2.47	
B11	~1.8	2.11	0.0287	0.0429	2.41	
B12	7.51	2.08	0.0198	0.0372	2.05	
B13	6.62	1.67	0.0204	0.0562	2.66	
B14	~1.65	0.88	0.0272	0.0174	1.96	
B15						0.153
B16						0.0972
